Measurements as given in patent publication US8598081B2, “Specific delivery of agrochemicals” (priority 2010, dated 2013).

T1: potato lectin (Solanum tuberosum, UniProt Q9S8M0)
T1 construct: purchased Sigma
T1 sequence (Q9S8M0 whole entry, looked up): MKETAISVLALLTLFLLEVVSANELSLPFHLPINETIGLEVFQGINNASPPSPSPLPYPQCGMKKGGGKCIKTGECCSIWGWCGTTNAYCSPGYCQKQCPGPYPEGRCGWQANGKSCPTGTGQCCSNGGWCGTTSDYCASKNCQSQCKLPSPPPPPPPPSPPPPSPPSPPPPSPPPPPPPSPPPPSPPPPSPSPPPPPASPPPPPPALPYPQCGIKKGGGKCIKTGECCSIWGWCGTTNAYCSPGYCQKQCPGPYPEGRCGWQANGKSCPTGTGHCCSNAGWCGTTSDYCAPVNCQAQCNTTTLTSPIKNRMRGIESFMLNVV


How the values were obtained:
potato lectin = molecular target: T1, potato lectin; test: ELISA-like assay of VHH-coupled microcapsules, potato lectin-coated wells; type: binding; set-up: Area of bound microcapsules: unit not given beside the values; conditions: for Area of bound microcapsules: uvitex OB microcapsules
Experimental: Polyurea microcapsules were produced by interfacial polymerization. With the objective to generate functionalized polyurea microcapsules, VHH were coupled to microcapsules containing either the insecticide lambda cyhalothrin or the fluorescent tracer molecule Uvitex OB and a shell with incorporated lysine to surface-expose carboxylic acid residues. Lambda cyhalothrin was dissolved in benzyl benzoate in concentrations between 30% and 66% before encapsulation. Alternatively, a core of 1.5% Uvitex in benzyl benzoate was used for easy fluorescent visualization of microcapsules. Toluene diisocyanate (TDI) and polymethylenepolyphenylene isocyanate (PMPPI) were dissolved in the oil phase in different ratios and concentrations in the oil phase to produce desired shell characteristics. Stirring speed for the emulsion was varied to control droplet size and consequently microcapsule diameter. Microcapsules with approximate diameters of 5 μm, 10 μm, or 50 μm were successfully produced. Bifunctional lysine and trifunctional diethylene triamine (DETA) were used in different ratios and/or added sequentially during encapsulation to on the one hand maximize amounts of carboxylic acids on the microcapsules' surface and on the other hand obtain sufficient strength of capsule shells. Microcapsules were washed with water after production and stored as microcapsule suspensions in water. The microcapsules were washed with 100 mM MES, 500 mM NaCl, pH 6.0 immediately before coupling of VHH using a vacuum-tight filter flask and P 1.6 filter funnel (Duran). Alternatively, glass filter holders with 0.45 μm disposable membrane filters (Millipore) or 0.45 μm 96-well deep-well filtration plates (Millipore) were used. Couplings of VHH to microcapsules were performed using carbodiimide-mediated couplings using a one-step procedure, a two-step procedure without N-hydroxysuccinimide (NHS), or a two-step procedure with NHS. The major difference between one-step coupling and two-step coupling procedures is the occurrence of cross-linking of VHH in one-step coupling procedures. The protocols for the three procedures are largely similar and differ as follows. For one-step couplings VHH were added to washed microcapsules and 1-Ethyl-3-[3-dimethylaminopropyl]carbodiimide Hydrochloride (EDC) (Pierce) was added and coupling reaction was allowed for 2 hours at room temperature. For two-step couplings washed microcapsules were first activated with EDC in the presence or absence of NHS. Excess unreacted EDC (and NHS) were removed by quick sequential washes with ice-cold buffers and VHH were added and allowed to react with activated carboxylic acids on microcapsule shells. For ø 10 μm microcapsules 2-20 μg VHH were coupled per mg microcapsules. For microcapsules with other diameters amounts were scaled accordingly. After coupling of VHH the microcapsules were washed with PBS and stored in PBS. Success of coupling of VHH was investigated using a combination of analyzing coupling efficiency by SDS-PAGE and analyzing bound hexahistidine-tagged VHH by microscopy or a SP5 confocal microscope system (Leica) using anti-histidine antibodies directly conjugated with Alexa-488 fluorescent dye. […] VHH-coupled microcapsules were labeled with anti-histidine antibodies for 1 hour at room temperature. Unbound anti-histidine antibodies were removed by washing five times with PBS using 0.45 μm 96-well deep-well filtration plates (Millipore). […]

[1] = test system: surface of black nightshade leaves; test: VHH binding to non-fixed leaf discs, black nightshade; conditions: 5 μg/ml, detection with anti-histidine Alexa-488
Experimental: VHH binding to non-fixed leaf discs of potato (variety Desiree), black nightshade, grass, wheat or azalea was investigated. For comparison, binding of CBM3a to non-fixed leaf discs of potato (variety Desiree) was analyzed in parallel. Leaf discs were prepared by punching a fresh potato leaf with a 5 mm belt hole puncher tool. Leaf discs were put immediately in wells of a 96-well plate containing 200 μl per well 5% MPBS or PBS, and incubated for 30 minutes. Leaf discs were transferred to solutions containing 5 μg/ml VHH antibody fragment, respectively, 5 μg/ml CBM3a in 2% MPBS or PBS and incubated for 60-90 minutes. Unbound VHH or CBM3a proteins were removed by washing three times with 2% MPBS or PBS. Bound VHH or CBM3a proteins were detected with incubation with monoclonal mouse anti-histidine antibodies directly conjugated with Alexa-488 fluorescent dye (Abd Serotec) in 1% MPBS for 1 hour. Unbound antibodies were removed by washing three times with PBS. Leaf discs were put on glass slides, covered with cover slips, and analyzed by microscopy or on a macrozoom microscope system (Nikon) or a SP5 confocal microscope system (Leica).

potato leaf discs = test: Leaf disc binding assay with VHH-coupled microcapsules, potato; set-up: species or system potato (variety Desiree)
Experimental: A leaf disc binding assay was used to evaluate the interaction of VHH-coupled microcapsules with potato, grass and azalea leaves. ø 8 mm leaf discs were sampled from the leaves of potato pot plants (variety Desiree), from the leaves of greenhouse-grown Lollium perenne and from the leaves of azalea pot plants. Leaf discs were washed three times with PBS. Microcapsules containing lambda cyhalothrin or Uvitex were diluted to appropriate densities in 1% skimmed milk in PBS with 0.05%-TWEEN®-20. Microcapsules were added to the leaf discs and settling of microcapsules and binding of targeting agents allowed for 1 hour. Unbound microcapsules were removed by washing three to five times with PBS with 0.05%-TWEEN®-20.
For lambda cyhalothrin microcapsules, a residue analysis was performed to measure lambda cyhalothrin amounts on potato leaf discs. Washed leaf discs with bound microcapsules were transferred to glass vials and microcapsules were dissolved in acetone. Samples were diluted by addition of hexane containing 0.05% triphenylphosphate as internal standard. The amount of lambda cyhalothrin was determined by GC/MS-MS analysis in comparison with calibration solutions. Controls for lambda cyhalothrin microcapsules included blank microcapsules to which no VHH were coupled and microcapsules to which unrelated VHH were coupled.
Leaf discs with Uvitex microcapsules were analyzed for bound microcapsules on a macrozoom microscope system (Nikon). Microcapsules were counted using Volocity image analysis software (Perkin Elmer). A DAPI filter was used to visualize Uvitex microcapsules. Controls for Uvitex microcapsules included blank microcapsules to which no VHH were coupled and microcapsules to which unrelated VHH were coupled.

[2] = potato leaf discs, Uvitex microcapsules, FIG. 4

Row | Molecule | binding and retaining microcapsules to antigen-coated surface when VHH is coupled to a microcapsule (potato lectin; microcapsule binding assays, resists washing shear forces) | binding to native black nightshade leaf surface (fluorescence microscopy) [1] | binding to native black nightshade leaf surface (fluorescence microscopy) ([1]; listed as 3E6) | binding and retaining microcapsules to leaf surfaces (potato leaf discs; VHH coupled to Uvitex microcapsules, leaf disc binding assay) | Area of bound microcapsules (potato lectin; no coating (first series, with potato lectin rows), surface coverage 100%) | Area of bound microcapsules (potato lectin; potato lectin, surface coverage 4%) | Area of bound microcapsules (potato lectin; potato lectin, surface coverage 20%) | Area of bound microcapsules (potato lectin; potato lectin, surface coverage 100%) | more microcapsules bound to leaf surfaces compared to blank microcapsules (potato leaf discs; [2]) | more microcapsules bound to leaf surfaces compared to microcapsules coupled with unrelated VHH (potato leaf discs; [2])
1 | VHH 3E6: VHH binding gum arabic, potato lectin and leaf surface; SEQ ID NO:7 by order of the list (protein, listed as Lama glama, 3E6) VHH: QVQLQESGGGLVQPGGTLSLSCAASGFNVRWYGMGWFRQAPGKEREGVACISALQETTAYADSVKGRFTLSRDNPKNTLSLQMNNLQPEDTGVYYCATTDCDDSSRMTYTSYLGQGTQVTVSS | capable of binding specifically to antigen-coated surfaces | binding leaf surface, glandular trichomes, and leaf hairs | bind specifically | capable of binding and retaining microcapsules specifically to leaf surfaces |  |  |  |  |  | 
2 | Microcapsules containing uvitex OB VHH 3E6: polyurea microcapsules containing the fluorescent tracer Uvitex OB, coupled with (monovalent) VHH 3E6 (conjugate, left off: small tags and cut ends, polyurea microcapsules containing the fluorescent tracer Uvitex OB, coupled with (monovalent) VHH 3E6) VHH: QVQLQESGGGLVQPGGTLSLSCAASGFNVRWYGMGWFRQAPGKEREGVACISALQETTAYADSVKGRFTLSRDNPKNTLSLQMNNLQPEDTGVYYCATTDCDDSSRMTYTSYLGQGTQVTVSS |  |  |  |  | 86.574 | 144.955 | 510.242 | 504.839 | nine-fold | six-fold
